Patent publication US20240409645A1 (DUALYX, published 2024)

T1: human IL-2 receptor (IL-2Rα/IL-2Rβ/γc) (human, UniProt P01589 22-272; P14784 27-551; P31785 23-369)
T1 sequence 1: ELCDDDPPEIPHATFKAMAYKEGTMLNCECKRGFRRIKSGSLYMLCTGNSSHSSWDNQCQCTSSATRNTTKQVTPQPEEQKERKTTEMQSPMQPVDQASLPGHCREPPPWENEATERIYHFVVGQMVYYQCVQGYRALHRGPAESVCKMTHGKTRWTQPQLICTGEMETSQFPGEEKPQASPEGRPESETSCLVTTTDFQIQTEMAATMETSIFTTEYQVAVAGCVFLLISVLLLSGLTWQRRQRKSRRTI
T1 sequence 2: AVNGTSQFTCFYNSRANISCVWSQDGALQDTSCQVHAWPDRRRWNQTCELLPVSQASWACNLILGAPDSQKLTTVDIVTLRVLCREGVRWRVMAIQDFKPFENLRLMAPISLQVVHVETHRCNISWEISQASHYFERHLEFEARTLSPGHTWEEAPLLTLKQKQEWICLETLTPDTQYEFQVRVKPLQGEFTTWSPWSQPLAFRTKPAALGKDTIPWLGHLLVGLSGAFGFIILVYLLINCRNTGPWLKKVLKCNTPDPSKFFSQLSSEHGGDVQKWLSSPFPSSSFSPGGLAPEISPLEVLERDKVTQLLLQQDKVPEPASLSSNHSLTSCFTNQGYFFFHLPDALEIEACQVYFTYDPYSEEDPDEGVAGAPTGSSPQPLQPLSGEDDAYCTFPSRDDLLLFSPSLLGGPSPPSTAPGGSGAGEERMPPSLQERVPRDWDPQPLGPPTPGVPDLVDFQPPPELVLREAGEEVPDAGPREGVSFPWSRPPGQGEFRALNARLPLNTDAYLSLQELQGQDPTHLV
T1 sequence 3: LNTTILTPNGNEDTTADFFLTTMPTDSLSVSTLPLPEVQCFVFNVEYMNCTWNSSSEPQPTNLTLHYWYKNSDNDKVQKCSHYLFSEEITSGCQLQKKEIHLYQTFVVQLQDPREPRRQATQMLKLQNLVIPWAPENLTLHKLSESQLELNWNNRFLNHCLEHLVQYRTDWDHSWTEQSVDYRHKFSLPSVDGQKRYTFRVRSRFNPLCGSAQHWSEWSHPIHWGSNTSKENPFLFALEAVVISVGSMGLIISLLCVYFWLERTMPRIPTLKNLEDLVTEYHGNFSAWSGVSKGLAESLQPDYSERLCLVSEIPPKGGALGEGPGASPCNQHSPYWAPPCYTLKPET

B1: DC00078 (other)
chain 1: QVQLVESGGGLVQAGGSLRLSCAASGIPFDNYAMGWFRQAPGKEREFVAARDLEGIITRYGDSVKGRFTISRGNAKNTVFLQMNSLKPEDTAVYYCAARDGGVVAGSRSSAQYNYWGQGTQVTVSSDKTHTCPPCPAPEAAGGPSVFLFPPKPKDTLMISRTPEVTCVVVDVSHEDPEVKFNWYVDGVEVHNAKTKPREEQYNSTYRVVSVLTVLHQDWLNGKEYKCKVSNKALGAPIEKTISKAKGQPREPQVYTLPPSRDELTKNQVSLTCLVKGFYPSDIAVEWESNGQPENNYKTTPPVLDSDGSFLLYSKLTVDKSRWQQGNVFSCSVMHEALHNHYTQKSLSLSPGK
chain 2: QVQLVESGGGLVQAGGSLTLSCAAPGRTFGTDVVGWFRQAPGKEREFVASISRSGDGIYYDDSVKGRFTISRNNAWNTVNLQMNSLKVEDTAVYYCAAGDGWSTYDYWGQGTQVTVSSGGGGSGGGGSGGGGSEVQLVESGGGLVQTGGSLRLSCAASGGTFSRDAMAWFRQVPGKEREFVALISWSGATTNYADSVKGRFAISRDNGKNTVYLQMNRLKPADTAIYYCAADRRPMGSRSYFEPTEYDDWGQGTQVTVSSGGGGSGGGGSGGGGSQVQLVESGGGLVQPGGSLRLSCATSGFTFRNNFMSWVRQAPGKGLEWVSTISYGGESTTYAESVKGRFTISRDNAKNTLYLQMNNLKPEDTAVYYCAKATSYDSIRSGSRGQGTQVTVSSDKTHTCPPCPAPEAAGGPSVFLFPPKPKDTLMISRTPEVTCVVVDVSHEDPEVKFNWYVDGVEVHNAKTKPREEQYNSTYRVVSVLTVLHQDWLNGKEYKCKVSNKALGAPIEKTISKAKGQPREPQVYTLPPSRDELTKNQVSLTCLVKGFYPSDIAVEWESNGQPENNYKTTPPVLDSDGSFFLYSRLTVDKSRWQQGNVFSCSVMHEALHNHYTQKSLSLSPGK
B2: DC00079 (other)
chain 1: B1 chain 1
chain 2: QVQLVESGGGLVQAGGSLTLSCAAPGRTFGTDVVGWFRQAPGKEREFVASISRSGDGIYYDDSVKGRFTISRNNAWNTVNLQMNSLKVEDTAVYYCAAGDGWSTYDYWGQGTQVTVSSGGGGSGGGGSGGGGSQVQLVESGGGLVQPGGSLRLSCATSGFTFRNNFMSWVRQAPGKGLEWVSTISYGGESTTYAESVKGRFTISRDNAKNTLYLQMNNLKPEDTAVYYCAKATSYDSIRSGSRGQGTQVTVSSGGGGSGGGGSGGGGSEVQLVESGGGLVQTGGSLRLSCAASGGTFSRDAMAWFRQVPGKEREFVALISWSGATTNYADSVKGRFAISRDNGKNTVYLQMNRLKPADTAIYYCAADRRPMGSRSYFEPTEYDDWGQGTQVTVSSGGGGSGGGGSGGGGSDKTHTCPPCPAPEAAGGPSVFLFPPKPKDTLMISRTPEVTCVVVDVSHEDPEVKFNWYVDGVEVHNAKTKPREEQYNSTYRVVSVLTVLHQDWLNGKEYKCKVSNKALGAPIEKTISKAKGQPREPQVYTLPPSRDELTKNQVSLTCLVKGFYPSDIAVEWESNGQPENNYKTTPPVLDSDGSFFLYSRLTVDKSRWQQGNVFSCSVMHEALHNHYTQKSLSLSPGK
B3: DC00080 (other)
chain 1: QVQLVESGGGLVQAGGSLRLSCAASGGTFRTRNMGWFRRAPGKEREFVAAVSWNVDNKLYADSVKGRFTISRDNGRNMVYLQMNSLKPEDTAVYYCAADNIPLSSDMRPTATEYDYWGQGTQVTVSSDKTHTCPPCPAPEAAGGPSVFLFPPKPKDTLMISRTPEVTCVVVDVSHEDPEVKFNWYVDGVEVHNAKTKPREEQYNSTYRVVSVLTVLHQDWLNGKEYKCKVSNKALGAPIEKTISKAKGQPREPQVYTLPPSRDELTKNQVSLTCLVKGFYPSDIAVEWESNGQPENNYKTTPPVLDSDGSFLLYSKLTVDKSRWQQGNVFSCSVMHEALHNHYTQKSLSLSPGK
chain 2: EVQLVESGGGLVQTGGSLRLSCAASGGTFSRDAMAWFRQVPGKEREFVALISWSGATTNYADSVKGRFAISRDNGKNTVYLQMNRLKPADTAIYYCAADRRPMGSRSYFEPTEYDDWGQGTQVTVSSGGGGSGGGGSGGGGSQVQLVESGGGLVQPGGSLRLSCATSGFTFRNNFMSWVRQAPGKGLEWVSTISYGGESTTYAESVKGRFTISRDNAKNTLYLQMNNLKPEDTAVYYCAKATSYDSIRSGSRGQGTQVTVSSGGGGSGGGGSGGGGSQVQLVESGGGLVQAGGSLTLSCAAPGRTFGTDVVGWFRQAPGKEREFVASISRSGDGIYYDDSVKGRFTISRNNAWNTVNLQMNSLKVEDTAVYYCAAGDGWSTYDYWGQGTQVTVSSGGGGSGGGGSGGGGSDKTHTCPPCPAPEAAGGPSVFLFPPKPKDTLMISRTPEVTCVVVDVSHEDPEVKFNWYVDGVEVHNAKTKPREEQYNSTYRVVSVLTVLHQDWLNGKEYKCKVSNKALGAPIEKTISKAKGQPREPQVYTLPPSRDELTKNQVSLTCLVKGFYPSDIAVEWESNGQPENNYKTTPPVLDSDGSFFLYSRLTVDKSRWQQGNVFSCSVMHEALHNHYTQKSLSLSPGK
B4: DC00081 (other)
chain 1: B3 chain 1
chain 2: QVQLVESGGGLVQPGGSLRLSCATSGFTFRNNFMSWVRQAPGKGLEWVSTISYGGESTTYAESVKGRFTISRDNAKNTLYLQMNNLKPEDTAVYYCAKATSYDSIRSGSRGQGTQVTVSSGGGGSGGGGSGGGGSQVQLVESGGGLVQAGGSLTLSCAAPGRTFGTDVVGWFRQAPGKEREFVASISRSGDGIYYDDSVKGRFTISRNNAWNTVNLQMNSLKVEDTAVYYCAAGDGWSTYDYWGQGTQVTVSSGGGGSGGGGSGGGGSEVQLVESGGGLVQTGGSLRLSCAASGGTFSRDAMAWFRQVPGKEREFVALISWSGATTNYADSVKGRFAISRDNGKNTVYLQMNRLKPADTAIYYCAADRRPMGSRSYFEPTEYDDWGQGTQVTVSSGGGGSGGGGSGGGGSDKTHTCPPCPAPEAAGGPSVFLFPPKPKDTLMISRTPEVTCVVVDVSHEDPEVKFNWYVDGVEVHNAKTKPREEQYNSTYRVVSVLTVLHQDWLNGKEYKCKVSNKALGAPIEKTISKAKGQPREPQVYTLPPSRDELTKNQVSLTCLVKGFYPSDIAVEWESNGQPENNYKTTPPVLDSDGSFFLYSRLTVDKSRWQQGNVFSCSVMHEALHNHYTQKSLSLSPGK

Target: T1, human IL-2 receptor (IL-2Rα/IL-2Rβ/γc)
Assay: cell-based or functional assay

Binder	EC50 (nM) pSTAT5, NK, human PBMCs [nM]	EC50 (nM) pSTAT5, Treg, human PBMCs [pM]	Fold Max signal (% pSTAT5+) Treg/NK [fold]	Max signal (% pSTAT5+), NK [% pSTAT5+]	Max signal (% pSTAT5+), Treg [% pSTAT5+]	fold EC50 NK/Treg [fold]
B1	0.195	< 0.1	5	14.1	67.8	> 1950
B2	0.0993	< 0.1	8	7.35	62.4	> 994
B3	0.00648	< 0.1	4	4.42	17.8	> 64.8
B4	0.194	< 0.1	5	13.5	60.9	> 1940
